Reference: US11453711B2, “Fusion proteins of GLP-1 and GDF15 and conjugates thereof” (BEIJING QL BIOPHARMACEUTICAL CO., LTD., priority 2019, dated 2022)

Assays:
[1] = Efficacy in db/db mice: body weight, food intake, glucose, biomarkers, daily sc 14 days; format: in vivo
[2] = Separate DIO mice study with inactivated control molecules, daily sc 22 days; format: in vivo, DIO mice (C57BL/6 mice on high fat diet)
Protocol: FIGS. 9A-9G show In vivo efficacy in DIO mice. To evaluate the body weight, food intake and glucose effects of the fusion proteins, 17 week old DIO mice (C57BL/6 mice on high fat diet for 13 weeks) were dosed everyday subcutaneously with different concentrations of proteins for 22 days. […] Data are expressed as mean values and standard error (SEM) for FIGS. 9A and 9C-G. n=5 for each treatment group. For FIG. 9B, a pooled food intake was measured for each treatment group.
17 week old DIO male C57BL/6 mice (˜45 g) were injected everyday subcutaneously with designated proteins (i.e., MLC089, MLC093) for 28 days. Food intake and body weight were measured daily and five animals were used for each treatment group. Fasting glucose was also monitored on designated days. Body weight and glucose were monitored for each individual animal, but food intake for each group animals was measured together. Day 1 and Day 28 are first day and last day of molecule dosage. % BW loss=100*(BW on Day n-BW on Day 1)/(BW on Day 1). Cumulative food intake on Day n represents sum of food intake from Day 1 to Day n. Terminal blood was collected and EDTA-2K plasma was prepared and frozen at −80 C for biomarker measurement. Liver was also collected and frozen in liquid nitrogen and store at −80 C. Data are indicated as mean values and standard error (SEM) or pooled values.

[3] = 30 nmol/kg, FIG. 8A-C, versus Semaglutide, Tirzepatide and MLC014

B1: MLC093: fusion polypeptide SEQ ID NO: 381 conjugated with Moiety B at 33C of Linker (conjugate)
chain: HGEGTFTSDVSSYLEEQAAKEFIAWLVRGGGGAQPGAQPGAQPGAQPGAQPGAQPGAQPGAQPCQEPGAQPGQEPGAQPGQEPGAQPGQEPGAQPGQEPGAQPGQEPGAQPARQGDHCPLGPGRCCRLHTVRASLEDLGWADWVLSPREVQVTMCIGACPSQFRAANLHAQIKTSLHRLKPDTVPAPCCVPASYNPMVLIQKTDTGVSLQTYDDLLAKDCHCI
modifications: Moiety B conjugated at linker Cys33
[1]; [3]
  body weight loss: more body weight loss, food intake suppression and glycemic control
  food intake suppression: more body weight loss, food intake suppression and glycemic control
  glycemic control: more body weight loss, food intake suppression and glycemic control
[1]; Day 15, FIG. 8I
  liver triglyceride content: a trend in reducing liver triglyceride content
[1]; FIG. 8 study
  efficacy: better efficacy than Semaglutide and GDF15 derivative (MLC014)
[1]; terminal plasma Day 15, FIG. 8G
  plasma triglyceride concentration: induced the reduction
[1]; terminal plasma Day 15, FIG. 8H
  plasma ALT concentration: induced the reduction
[2]; Day 22, FIG. 9G, relative to vehicle or MLC114 and MLC113
  liver triglyceride contents: reduction of liver triglyceride contents
[2]; separate DIO study, FIG. 9A-9G, versus MLC114 and MLC113
  efficacy: better efficacy than corresponding control molecules having inactivated GLP-1 or GDF15 mutants
[2]; separate DIO study, FIG. 9A, versus MLC114 and MLC113
  body weight reduction: better body weight reduction, food intake suppression and glucose control
[2]; separate DIO study, FIG. 9B, versus MLC114 and MLC113
  food intake suppression: better body weight reduction, food intake suppression and glucose control
[2]; separate DIO study, FIG. 9C, versus MLC114 and MLC113
  glucose control: better body weight reduction, food intake suppression and glucose control
[2]; terminal plasma Day 22, FIG. 9D, relative to vehicle or MLC114 and MLC113
  plasma triglyceride level: therapeutic efficacy in reducing plasma triglyceride, cholesterol and insulin levels
[2]; terminal plasma Day 22, FIG. 9E, relative to vehicle or MLC114 and MLC113
  plasma cholesterol level: therapeutic efficacy in reducing plasma triglyceride, cholesterol and insulin levels
[2]; terminal plasma Day 22, FIG. 9F, relative to vehicle or MLC114 and MLC113
  plasma insulin level: therapeutic efficacy in reducing plasma triglyceride, cholesterol and insulin levels
